Test results reported in US20230204567A1 (Takeda / Millennium, published 2023).

T1: ZIKV E protein (Native Antigen) (Zika virus)
T1 chain: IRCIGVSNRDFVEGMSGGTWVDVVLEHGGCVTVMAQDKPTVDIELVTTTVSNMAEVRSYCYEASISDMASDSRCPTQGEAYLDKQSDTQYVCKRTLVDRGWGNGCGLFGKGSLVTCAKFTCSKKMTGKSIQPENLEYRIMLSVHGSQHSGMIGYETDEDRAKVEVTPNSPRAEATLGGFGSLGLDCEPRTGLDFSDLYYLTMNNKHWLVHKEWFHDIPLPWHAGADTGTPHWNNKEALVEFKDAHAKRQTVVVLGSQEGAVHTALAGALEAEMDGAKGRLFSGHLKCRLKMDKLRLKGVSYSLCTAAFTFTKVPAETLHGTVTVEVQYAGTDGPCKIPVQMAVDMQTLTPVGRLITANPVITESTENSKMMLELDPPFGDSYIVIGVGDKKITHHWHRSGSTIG

B1: Anti-ZIKV #2 (IgG, Clone 306-2) (antibody, V domains shown)
VH: QSLEESGGDLVKPGASLTLTCTASGFDFSDRYYMCWVRQAPGKGLEWIGCIYVGSGDTYYASWAKGRFTISRTSSTTVTLQMTRLTAADTATYFCARHPGTYFTLWGPGTLVTVSS
VL: DVVMTQTPSSVSAAVGGTVTINCQASQNIVNNLAWYQQRPGQPPKLLIYDTSTLASGVPSRFKGSGSGTEFTLTISDLECADAATYYCQTYYYYNKIINGFGGGTEVVVKG
notes: also called antibody 2; acceptor Ab of mAb pairs #1 to 3
B2: Anti-ZIKV #1 (IgG, Clone 242-3) (antibody, V domains shown)
VH: QAQLEESGGDLVKPEGSLTLTCTASGFSFTDRHYMCWIRQAPGKGLEWIACVYPGSSGSTYYASWARGRFTISKTSSTTVTLRMTSLTAADTATYFCARSSYPDSSGYSYGMDLWGPGTLVTVSS
VL: DIVMTQTPASVEAAVGGTVTIKCQASQNINSNLAWYQQKPGQRPKFLMYLTSKLASGVPSRFRGSGSGTQFTLTISDLECADAATYYCQTYYDISNYGYAFGGGTEVVVKG
notes: also called antibody 1; donor Ab of mAb pair #1

Assays:
[1] = molecular target: T2, inactivated DENV3 (CH53489, Microbix) (Dengue virus serotype 3); assay: ELISA, antigen coated at 1 µg/mL, hybridoma supernatant, anti-rabbit IgG-HRP
T2 construct: also called dengue virus serotype 3

[2] = molecular target: T3, inactivated DENV4 (TVP-360, Microbix) (Dengue virus serotype 4); assay: as above
T3 construct: also called dengue virus serotype 4

[3] = molecular target: T4, inactivated DENV2 (16681; Microbix) (Dengue virus serotype 2, UniProt P29990 281-775); assay: as above
T4 construct: also called dengue virus serotype 2

[4] = molecular target: T5, inactivated DENV1 (West Pacific 74, Microbix) (Dengue virus serotype 1, UniProt P17763 281-775); assay: as above
T5 construct: also called dengue virus serotype 1
T5 sequence (P17763 281-775 limits assumed): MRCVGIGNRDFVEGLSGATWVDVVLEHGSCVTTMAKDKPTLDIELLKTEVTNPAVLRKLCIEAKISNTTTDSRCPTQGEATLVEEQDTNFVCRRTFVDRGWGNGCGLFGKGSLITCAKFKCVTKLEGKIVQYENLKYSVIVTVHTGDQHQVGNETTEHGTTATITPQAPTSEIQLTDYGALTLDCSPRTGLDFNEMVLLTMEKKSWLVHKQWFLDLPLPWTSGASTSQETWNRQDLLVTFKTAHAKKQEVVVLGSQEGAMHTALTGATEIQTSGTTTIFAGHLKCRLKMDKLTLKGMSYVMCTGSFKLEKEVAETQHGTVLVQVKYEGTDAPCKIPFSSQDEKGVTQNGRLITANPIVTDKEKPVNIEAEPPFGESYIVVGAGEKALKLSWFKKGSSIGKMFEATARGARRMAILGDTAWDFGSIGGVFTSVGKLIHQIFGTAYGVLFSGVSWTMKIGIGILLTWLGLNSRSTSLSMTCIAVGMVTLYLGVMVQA

[5] = molecular target: T1, ZIKV E protein (Native Antigen); assay: as above
[6] = molecular target: T4, inactivated DENV2 (16681; Microbix); assay: ELISA, antigen coated at 1 µg/mL, hybridoma supernatant
[7] = molecular target: T5, inactivated DENV1 (West Pacific 74, …); assay: as above

Binder | optical density (OD) [1] [OD] | optical density (OD) [2] [OD] | optical density (OD) [3] [OD] | optical density (OD) [4] [OD] | optical density (OD) [5] [OD] | binding result [6] | binding result [7]
B1 | 0.034 | 0.048 | 0.034 | 0.037 | 0.61 | no binding | no binding
B2 | 0.04 | 0.038 | 0.034 | 0.04 | 0.33 | no binding | no binding
